Consider 21 molecules from patent US20250032576A1, “CNP Therapy” (BIOMARIN PHARMACEUTICAL INC., priority 2021, published 2025).

To fix the notation:
B1: Thr297Met: NPR2 protein-altering variant, expression construct transfected into HEK293 cells (protein)
chain: RNLTLAVVLPEHNLSYAWAWPRVGPAVALAVEALGRALPVDLRFVSSELEGACSEYLAPLSAVDLKLYHDPDLLLGPGCVYPAASVARFASHWRLPLLTAGAVASGFSAKNDHYRTLVRTGPSAPKLGEFVVTLHGHFNWTARAALLYLDARTDDRPHYFTIEGVFEALQGSNLSVQHQVYAREPGGPEQATHFIRANGRIVYICGPLEMLHEILLQAQRENLTNGDYVFFYLDVFGESLRAGPTRATGRPWQDNRTREQAQALREAFQTVLVIMYREPPNPEYQEFQNRLLIRAREDFGVELGPSLMNLIAGCFYDGILLYAEVLNETIQEGGTREDGLRIVEKMQGRRYHGVTGLVVMDKNNDRETDFVLWAMGDLDSGDFQPAAHYSGAEKQIWWTGRPIPWVKGAPPSDNPPCAFDLDDPSCDKTPLSTLAIVALGTGITFIMFGVSSFLIFRKLMLEKELASMLWRIRWEELQFGNSERYHKGAGSRLTLSLRGSSYGSLMTAHGKYQIFANTGHFKGNVVAIKHVNKKRIELTRQVLFELKHMRDVQFNHLTRFIGACIDPPNICIVTEYCPRGSLQDILENDSINLDWMFRYSLINDLVKGMAFLHNSIISSHGSLKSSNCVVDSRFVLKITDYGLASFRSTAEPDDSHALYAKKLWTAPELLSGNPLPTTGMQKADVYSFGIILQEIALRSGPFYLEGLDLSPKEIVQKVRNGQRPYFRPSIDRTQLNEELVLLMERCWAQDPAERPDFGQIKGFIRRFNKEGGTSILDNLLLRMEQYANNLEKLVEERTQAYLEEKRKAEALLYQILPHSVAEQLKRGETVQAEAFDSVTIYFSDIVGFTALSAESTPMQVVTLLNDLYTCFDAIIDNFDVYKVETIGDAYMVVSGLPGRNGQRHAPEIARMALALLDAVSSFRIRHRPHDQLRLRIGVHTGPVCAGVVGLKMPRYCLFGDTVNTASRMESNGQALKIHVSSTTKDALDELGCFQLELRGDVEMKGKGKMRTYWLLGERKGPPGLL
B2: Ile494Ser: NPR2 protein-altering variant, expression construct transfected into HEK293 cells (protein)
chain: B1 chain with M275T, I472S
B3: Gly209Val: NPR2 protein-altering variant, expression construct transfected into HEK293 cells (protein)
chain: B1 chain with G187V, M275T
B4: Pro301Ser: NPR2 protein-altering variant, expression construct transfected into HEK293 cells (protein)
chain: B1 chain with M275T, P279S
B5: Leu1009Val: NPR2 protein-altering variant, expression construct transfected into HEK293 cells (protein)
chain: B1 chain with M275T, L987V
B6: HIS508Asp: NPR2 protein-altering variant, expression construct transfected into HEK293 cells (protein)
chain: B1 chain with M275T, H486D
B7: Thr861Ile: NPR2 protein-altering variant, expression construct transfected into HEK293 cells (protein)
chain: B1 chain with M275T, T839I
B8: Lys1006Thr: NPR2 protein-altering variant, expression construct transfected into HEK293 cells (protein)
chain: B1 chain with M275T, K984T
B9: Ala48Ser: NPR2 protein-altering variant, expression construct transfected into HEK293 cells (protein)
chain: B1 chain with A26S, M275T
B10: Arg562Gln: NPR2 protein-altering variant, expression construct transfected into HEK293 cells (protein)
chain: B1 chain with M275T, R540Q
B11: Glu359Ala: NPR2 protein-altering variant, expression construct transfected into HEK293 cells (protein)
chain: B1 chain with M275T, E337A
B12: Glu389Asp: NPR2 protein-altering variant, expression construct transfected into HEK293 cells (protein)
chain: B1 chain with M275T, E367D
B13: Val553Leu: NPR2 protein-altering variant, expression construct transfected into HEK293 cells (protein)
chain: B1 chain with M275T, V531L
B14: His552Arg: NPR2 protein-altering variant, expression construct transfected into HEK293 cells (protein)
chain: B1 chain with M275T, H530R
B15: Ser522Pro: NPR2 protein-altering variant, expression construct transfected into HEK293 cells (protein)
chain: B1 chain with M275T, S500P
B16: Glu727Gln: NPR2 protein-altering variant, expression construct transfected into HEK293 cells (protein)
chain: B1 chain with M275T, E705Q
B17: Arg601Ser: NPR2 protein-altering variant, expression construct transfected into HEK293 cells (protein)
chain: B1 chain with M275T, R579S
B18: Arg263His: NPR2 protein-altering variant, expression construct transfected into HEK293 cells (protein)
chain: B1 chain with R241H, M275T
B19: Glu77Lys: NPR2 protein-altering variant, expression construct transfected into HEK293 cells (protein)
chain: B1 chain with E55K, M275T
B20: Lys480Asn: NPR2 protein-altering variant, expression construct transfected into HEK293 cells (protein)
chain: B1 chain with M275T, K458N
B21: Lys629Arg: NPR2 protein-altering variant, expression construct transfected into HEK293 cells (protein)
chain: B1 chain with M275T, K607R

Numbering of substitutions follows the chain as printed. “And” between values parts separate entries of the source, which are not always exact repeats. Equal values may be shown once.

For the first test, the system named is NPR2. Put plainly: cGMP catchpoint assay of NPR2 variants in transfected HEK293 cells treated with 20 nM CNP. It counts as cell-based. Details: key to Lable: loss-of-function (LoF); Gain-of-function (GoF). The note with it: cGMP normalized to RedLuciferase and to WT = 1; HEK293, 20 nM CNP, 0.4 nM IBMX; at least 3 repeat experiments with 4 replicates each. As for the experimental part: Described herein is an in-vitro assay (cGMP) to assess the activities of >260 NPR2 variants. NPR2 protein-altering variants have been identified in the UK Biobank study and described in Estrada et al. (Nat Commun. 2021 12 (1): 2224). NPR2-expression constructs were transfected into HEK293 cells and 3 days later cells were treated with […] IBMX and 20 nM CNP in serum-free DMEM prior to measuring cGMP levels. The cGMP catchpoint ELISA competition assay (Molecular Devices) was used to measure cGMP according to manufacturer recommendations. RedLuc was used as a transfection control (FIG. 8A).
The NPR2 alpha-fold structure was obtained from a recent alpha-fold publication (Jumper et al., Nature 596:583-589 (2021)). A list of phenotypically characterized “high-confidence” variants was generated (Table 4). Phenotype is calculated by determining levels of cGMP using a standard curve. This value to normalized to RedLuciferase (transfection control). This value is further normalized by setting WT to 1. Average value is calculated from at least 3 repeat experiments with 4 replicates each.
As for B1, the average phenotype amounted to 0.03025.
On the same count and under the same terms, then B2, with 0.03638; and B3, with 0.08861.
Still for that read-out and setting: as for B4, the figure is 0.08478; as for B5, 0.0847.
On the same count and under the same terms, then B6, with 1.74; and B7, with 0.07978 and 0.01124.
In the case of B8, the average phenotype was determined as 0.0551.
B9: the average phenotype is 0.06785.
On the same count and under the same terms, then B10, with 1.554 and 1.629.
On the same count and under the same terms, as for B11, the figure is 2.998.
Same read-out and setting: as for B12, the figure is 0.07079; as for B13, 1.515.
B14 yielded an average phenotype of 1.794.
On the same count and under the same terms, as for B15, the figure is 0.05673; as for B16, 1.705.
The same measure, in the same setting: then B17, with 0.05949; and B18, with 1.863.
The same measure, in the same setting: then B19, with 0.04986; and B20, with 1.689.
B21 showed an average phenotype of 1.493.

Still in this test, the particulars now being: high-confidence variant class.
B1: the Lable entry is reported as “LoF”.
The same measure, in the same setting: then B2, with “LoF”; and B3, with “LoF”; and B4, with “LoF”.
Still for that read-out and setting: as for B5, the entry is “LoF”; as for B6, “GoF”.
Same read-out and setting: then B7, with “LoF”; and B8, with “LoF”.
In the case of B9, the Lable entry was “LoF”.
Same read-out and setting: as for B10, the entry is “GoF”; as for B11, “GoF”.
The same measure, in the same setting: then B12, with “LoF”; and B13, with “GoF”; and B14, with “GoF”.
Take B15: the Lable entry is reported as “LoF”.
The same measure, in the same setting: as for B16, the entry is “GoF”; as for B17, “LoF”.
The same measure, in the same setting: then B18, with “GoF”.
For B19, the Lable entry is “LoF”.
Still for that read-out and setting: as for B20, the entry is “GoF”; as for B21, “GoF”.
